Assay [1] has as its target T1, human Y2 receptor (human, UniProt P49146 1-381).
T1 construct: whole, on cells
T1 sequence (looked up): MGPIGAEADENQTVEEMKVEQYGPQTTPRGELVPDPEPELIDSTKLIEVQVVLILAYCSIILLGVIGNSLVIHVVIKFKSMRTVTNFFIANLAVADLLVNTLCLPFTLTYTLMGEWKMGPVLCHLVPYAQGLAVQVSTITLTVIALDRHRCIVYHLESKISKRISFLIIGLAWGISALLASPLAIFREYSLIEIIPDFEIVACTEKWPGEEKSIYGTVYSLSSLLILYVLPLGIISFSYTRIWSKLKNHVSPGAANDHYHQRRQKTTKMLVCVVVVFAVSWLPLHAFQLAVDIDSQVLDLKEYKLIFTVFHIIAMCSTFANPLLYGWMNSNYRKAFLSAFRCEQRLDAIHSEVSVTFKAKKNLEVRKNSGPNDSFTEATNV
Briefly: 125I-PYY displacement, COS-7 membranes.

Assay [2] addresses T1, human Y2 receptor. Briefly: 125I-PYY displacement, COS-7 membranes. The source holds these as a separate data set.

Where two headings read alike, the source gives them in different places.

One may read the Ki as a dissociation constant, usually derived from enzyme kinetics or from competition with a known ligand. Read a high Ki as lower affinity.

B1: porcine NPY26-36 (peptide, UniProt P01304 35-45, looked up)
peptide: HYINLITRQRY
notes: range 26-36; Range counted on the mature peptide
As to B1, the inhibition constant (Ki) with human Y2 receptor [1] and with human Y2 receptor [2] was 380 nM throughout.

Source of the values: patent publication US6713265 (SYNAPTIC PHARMACEUTICAL, dated 2004).
